Laboratory results as given in the supplement of paper PMC12042874.
± gives the uncertainty stated by the source.

Assay: amyloid nucleation score (Sup35N fusion, yeast selection) (log enrichment); library NNK2; higher = more nucleation; inactive = no reads after selection
Procedure, shortened: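 Three technical output replicates were used for random libraries. Psi-negative yeast expressing peptides of 20 random codons fused to Sup35N were induced with 100 μM copper sulfate for 24 hours and grown 7 days at 30°C on medium lacking adenine and uracil, and input and output plasmid inserts were Illumina-sequenced, excluding sequences with under 100 input reads. The nucleation score is the DiMSum log enrichment of output over input reads, centred on the mode score of non-aggregating sequences.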

| Substance | amyloid nucleation score |
| --- | --- |
| TSNLFHLYGACRRYMGRCSA | 0.434 ± 0.66 |
| TRYHLHSALT | -0.12 ± 1 |
| LRFMNPRSALRYTKVSCTGN | -0.587 ± 0.54 |
| GVISYMTSRGRGLSNNMSNW | -0.15 ± 0.56 |
| WVCLYDVVICRIRLSDRENS | 0.713 ± 0.74 |
| SYWNLRQVVSIDDCMQSTFN | 0.058 ± 1 |
| TIWVATLDFPNSYMSSALFV | 4.27 ± 0.093 |
| VLNISMLLWIYNTYGNDGKV | 8.029 ± 0.08 |
| DSRIGYTSYQRFTMKSNVLC | 0.024 ± 0.44 |
| TYGTTELVLHRTEINMMRNQ | 3.25 ± 0.12 |
| FHLRWRFSSSSNNITRRRCR | 0.115 ± 1 |
| WILVGFIIGTKWVSRPTTDC | 3.61 ± 0.056 |
| QVYCQAVNYKENRVYFMGVP | 5.2 ± 0.054 |
| SDARPYWIIYMSNQPYGIDS | inactive |
| VSYVYVKGFGVWFLCTCSPR | 5.74 ± 0.072 |
| PLDPHCVFPIDNTSMMRVV | 0.295 ± 0.32 |
| TIIRMKLS | 1.39 ± 0.39 |
| LFGLNFNLSNNLFMFFSYTQ | 3.46 ± 0.082 |
| WVVVDNHLS | -0.234 ± 0.65 |
| VWMYITSW | -1.12 ± 0.55 |
| EIYCCAYPLFCVWVVTGIRL | 1.62 ± 0.13 |
| MRWSYFDH | 0.921 ± 0.47 |
| LVKCRGATCLIVTSDRLLYV | inactive |
| QLTQYQSKTRTMCRKQERTV | 1.88 ± 0.43 |
| NWVWLKWRITQYFIHSASSS | 1.43 ± 0.19 |

| Substance | amyloid nucleation score |
| --- | --- |
| GHNATNVGHIMFFITTWCCY | 8.955 ± 0.047 |
| VYIIVFRIWLPLHFWSSTLM | -0.354 ± 0.56 |
| LATWLP | 0.871 ± 0.21 |
| HCLFSGYYLKLN | inactive |
| SYDLELAT | 0.667 ± 0.18 |
| GNLVC | 0.821 ± 0.19 |
| SDLVLKSLFDVVARRL | -0.072 ± 0.35 |
| FRNAGIKRCPFVTRDQSTHF | inactive |
| NGTKTP | 0.568 ± 0.47 |
| GAGLRCLFGNSGYGERCVTM | 0.82 ± 0.44 |
| VFVIWCFVIICVSLLSVVDR | -0.795 ± 0.49 |
| CLSDNC | -0.13 ± 0.74 |
| SVGPLLYATMSMAGDSVAGA | 0.004 ± 0.34 |
| LYRYSSG | inactive |
| GCNIRTNVGRLCMSYPDSNR | 0.636 ± 0.18 |
| SLTAVWDDLAMLKLWAEMEM | 0.053 ± 1.1 |
| AGDAAN | inactive |
| VYYGVYLMSCFVAGGYFYCF | 3.75 ± 0.061 |
| RLVSKEATCPR | -0.058 ± 0.54 |
| IRVFSDGAFKTEFTTKATLL | 0.328 ± 0.65 |
| GIKYRSQCGCASDVCIKCRS | -0.054 ± 1.1 |
| SRFCSIIITMNVNHLPV | 5.79 ± 0.068 |
| MRSTALYDILRRPWFNFSAY | -0.014 ± 0.76 |
| LYLMSHTGFLSNTHIRLAPR | -0.291 ± 1.1 |
| THTLRGLQANRMISNNMDTI | -0.402 ± 0.61 |

| Substance | amyloid nucleation score |
| --- | --- |
| HYVIVNIICCSDVGVLSRDR | 9.454 ± 0.069 |
| CGWGYLTCPSRTVVWARAGV | 1.35 ± 0.25 |
| CQRQRLNFY | -0.626 ± 1.1 |
| MTDLLTMVAYRLKGSRVSSM | 0.08 ± 0.37 |
| VTVNE | 0.711 ± 0.21 |
| VGDRSFVMFSIFESAGSCCT | 1.03 ± 0.25 |
| WWCMLFNGEGGDCDILDFSS | -0.385 ± 0.49 |
| SQTMVITFFSRCDVQIVKIN | 5.583 ± 0.03 |
| RFGIGSLRSTSHVAGLMVMS | 0.733 ± 0.44 |
| FYNRFRGFIFV | inactive |
| LYHETAENSSRTQTTRRWSF | -0.321 ± 1 |
| DCLNYFTTLIKLVSLVCWNG | -0.571 ± 0.79 |
| VERFLPVCFIPLISKRWTMY | 0.283 ± 0.54 |
| NGGPRAYLDIYDLSGVSDRR | 0.487 ± 0.18 |
| LILRCLC | 0.235 ± 0.8 |
| MFTKDISGFLGVLGHVVVLG | -0.237 ± 0.63 |
| NSKGN | 0.112 ± 1.1 |
| RHNKNRSVCSYRSKYAKKYV | -0.208 ± 0.74 |
| FSFEMDISLWALWGYMRSDL | inactive |
| RYRVRKCSLANWDEWTTIGC | 1.67 ± 0.19 |
| SCVCVMSYQLNVWRKHDSCI | 4.606 ± 0.035 |
| FLWYGISVI | 0.02 ± 0.4 |
| FGKYDGTYRSPVGYGFMWS | 0.397 ± 0.41 |
| YAVWLDMGFILIIACVGKYN | -0.747 ± 1.1 |
| YLVYKMNNGCLCNIFAPVTE | 8.303 ± 0.064 |

| Substance | amyloid nucleation score |
| --- | --- |
| WGRWAVSFYGLREDSLLSLG | -0.324 ± 0.53 |
| FDALY | 0.025 ± 0.25 |
| KTFLVDSLCNRL | inactive |
| RNSCFVLSFMGWFVHYHFRF | -0.317 ± 0.79 |
| YVCTRWVAYYLEWYGLDGPV | 0.665 ± 0.45 |
| NVHDSLFWQFVIVNYTIGLS | 3.38 ± 0.042 |
| WWFLIYLSSYRGNRCILVWF | -1.98 ± 0.44 |
| RYRLISTTFGVAHSFEPPRL | 4.26 ± 0.059 |
| RVDGDYSSARRGGLISKWAF | 0.804 ± 0.5 |
| WMCRSTAMIHSRSDCV | 6.328 ± 0.052 |
| NLVVCGNISGCLCYDYSFGK | 8.187 ± 0.032 |
| DIARDLVWGLRSNAGAQLGN | 0.54 ± 0.44 |
| FGLDYVTYVRWAGVCHLLYF | -0.56 ± 0.55 |
| VFYLSFIFLLWLSGKYLGHW | 1.25 ± 0.1 |
| VVWARYSVNLWMNLGSQASF | 4.01 ± 0.1 |
| TSYYLDL | -1.31 ± 0.75 |
| GLAEYRS | -0.488 ± 0.64 |
| RGGSIIYHALVRVVFFLSVY | -1.01 ± 0.64 |
| VMHSYDYVTMGFRSRTDPFR | 3.05 ± 0.14 |
| GRDPGNDEIDKLALSWRLMG | 0.657 ± 0.32 |
| MMFTSQTGDLLFF | 4.89 ± 0.051 |
| PMSSMMRGSDPKV | 0.119 ± 0.76 |
| IYMRRCSVLGSHCH | 0.081 ± 1.1 |
| CHIGN | inactive |
| CLGRLMVYSAYYVHLYGVTI | -1.29 ± 0.62 |

| Substance | amyloid nucleation score |
| --- | --- |
| SVNYVCISLVVM | 7.14 ± 0.072 |
| LLSVASRLLVPFRERGNGS | -0.256 ± 1.1 |
| QFWVPTLEAWSWTSAFPYMP | -0.536 ± 1.1 |
| SWVNMIMNMSLHTDIRYMLY | 1.66 ± 0.25 |
| NMFVSSRSM | 0.585 ± 0.8 |
| KKDSSWFRLNDKKVVSSHKR | -0.215 ± 0.2 |
| IVRVIMYLCGNLLVNRWGNA | 0.082 ± 1.1 |
| WFFFFNGPAYVFNLNIVNFS | 7.035 ± 0.06 |
| GVASMSRRARSHKMGGWMGR | 1.05 ± 0.41 |
| ICIDRNRI | 0.396 ± 0.34 |
| FRFSNR | 0.389 ± 0.56 |
| FGMILPFGDIFTLASDFRVR | -0.833 ± 1.1 |
| VSYPVCMGKWHGSTRILNRH | 0.669 ± 0.27 |
| YRAAWSSAAG | -0.137 ± 1.1 |
| SPTER | 0.053 ± 0.65 |
| DSVIWVCIVWRRSSSTMCVM | 1.01 ± 0.38 |
| FFTRRLNSNWMCFLADNCYR | -0.439 ± 0.64 |
| HGNWGLLYLTDALVKMIQDV | -0.311 ± 0.3 |
| DAEIMMCYCKFSGFGSITWR | 0.143 ± 0.5 |
| AAVTFSISYFIKTLHLENSS | 0.169 ± 0.28 |
| WWSARYRGTLD | 1.57 ± 0.24 |
| CRTRL | 0.505 ± 0.39 |
| QCGMIMRSSLKSGATCFLDS | 0.124 ± 0.61 |
| LRYNADMVGCKFWWIPVWSL | -0.843 ± 0.42 |
| RSLGVSAL | inactive |

| Substance | amyloid nucleation score |
| --- | --- |
| GSASLCNSAERVYV | 0.681 ± 0.55 |
| LSSVILVLNNSVAFYILDAG | 3.83 ± 0.09 |
| EWVMKSWV | -0.578 ± 1.1 |
| MTCSSHCGMCIPSIPQVFGA | 1.02 ± 0.4 |
| IQRPADRIQHMTMWHTQDLV | 1.14 ± 0.37 |
| SFHLS | -0.019 ± 0.6 |
| IRKALNASVLKLT | 1.1 ± 0.36 |
| KCRLSIF | inactive |
| GAIDLMDALRCPAKTDTR | 0.811 ± 0.67 |
| SWATLRVCNIFCMITCSYFM | 1.51 ± 0.15 |
| HSSGCYF | 0.081 ± 1.1 |
| SLNRTTSSLVRW | 6.029 ± 0.037 |
| TVILV | inactive |
| SYHGVRLFDIHIGSLKFQQ | 7.549 ± 0.054 |
| HCTWSQPPSS | -0.001 ± 0.5 |
| RGSVVLNSVWVMLDMYCLLP | 1.82 ± 0.28 |
| FSLFCPWRKWLLDEVFM | 0.5 ± 0.27 |
| SSYTKMC | -0.934 ± 0.78 |
| SKGIDSEIHKRHRVRD | -0.206 ± 0.54 |
| IAVERS | -0.464 ± 1.1 |
| QLNFYNQTQCVLGEVTTLN | -0.476 ± 0.36 |
| WVASSSKQRTHLCSGVKWSV | 0.539 ± 0.56 |
| NRDVRCGVRPQHVCFQ | inactive |
| CFTCHTIYCVYSKFKRDMDR | 3.56 ± 0.047 |
| LSDFEIFTLTIHSHLYHN | 1.66 ± 0.24 |

| Substance | amyloid nucleation score |
| --- | --- |
| YYACNKAND | -0.607 ± 1 |
| NCYSRALYSPCSPFLLTN | -1.73 ± 0.41 |
| NTRGWDAGS | 1.08 ± 0.28 |
| SSFAARRR | 0.276 ± 0.28 |
| NSAPRGQCRSVFGLMYSYSI | inactive |
| MSLILRSPLKTWLPLAHTQG | 0.187 ± 0.42 |
| TLYWNKSQRYGLLWFKFVSL | -0.277 ± 1 |
| NRNPYILGYLRPPEVDYWWW | -0.627 ± 1.1 |
| CFAGLFLLSSEFFYRLTSRR | 1.58 ± 0.12 |
| LATTVYFGAMGHVS | -1.38 ± 1 |
| CEHDCSPTYDGLSYASFVRE | 0.219 ± 0.5 |
| TYIFLSRIGQFSKLQYVMRL | 5.37 ± 0.056 |
| SFGCINTCFCMCSCFVREMD | 1.5 ± 0.14 |
| IKSIT | -0.388 ± 1 |
| NDVGSLWVIADVGIFYVQDK | -0.662 ± 0.61 |
| SQRRKQLEYHAVLWY | -0.289 ± 0.76 |
| QFARGPSGSIMEQVLIDGDV | 0.277 ± 0.64 |
| QTYMPTFCYITFLECWSDKG | 7.685 ± 0.035 |
| IIRRF | 0.28 ± 0.33 |
| EYLRPSWSH | -0.971 ± 0.56 |
| VYCVGNMSLGGLMDNCWYAG | 4.41 ± 0.062 |
| DRLLRSRLGIRSNRIVCW | -0.539 ± 0.36 |
| GLRELS | -0.874 ± 0.55 |
| YVFSIYGPFLLVEGLSTPFR | 4.49 ± 0.095 |
